The record followed here is patent US8715970B2, “Enzymatically catalyzed method of preparing mono-acylated polyols” (BASF SE, priority 2009, dated 2014).

Holding throughout (type): biochemical
The nature of experiment [1]: Enzyme selectivities and specificities towards 1,2-ethanediol with vinyl acetate or vinyl butyrate in MTBE (Example 7). The procedure:
(§1) Reactions using the CALB mutants as described in Example 5 and Example 6 were run with two different straight chain primary diols: 1,2-ethanediol, ≧99.5% from MERCK and 1,4-butanediol, ≧99% from Aldrich. Two different acyl donors were used: vinyl acetate, ≧99% from Fluka and vinyl butyrate, >99% from Fluka. Decane, ≧99% from Fluka, was used as internal standard. MTBE, 99.5% from Lab-Scan was used as solvent.
(§2) Each diol was dissolved to a concentration of 100 mM together with 1 M of the acyl donor and 20 mM decane in MTBE. Reactions were started by adding 3 ml reaction solution to a specific amount of enzyme carrier beads. Different amounts of enzyme carrier beads were used for the different reactions. For reactions with 1,2-ethanediol and vinyl acetate, 19.7 mg wild type, 22.5 mg A282L, 50.5 mg A281V, and 45.5 A281E CALB were used. […]
(§3) All reactions were analyzed on GC, Hewlett Packard 5890 series II. Two different 25 m×0.32 mm WCOT fused silica columns were used, depending on the different substrates and products that were analyzed. […] The response factor for each diol was determined in relationship to decane. When all diol and mono-ester had converted to di-ester, the response factor for the di-ester could be determined in relationship to decane. The concentration of mono-ester in each reaction was determined by subtracting the concentration of di-ester from the starting concentration of diol.

A short description of experiment [2]: Acylation of 1,4-butanediol in competition with 1-butanol (Example 4). The procedure: Additionally, 1-butanol, ≧99.5% from Riedel-de Haën, was used as a competing substrate.
25 mM decane ≧98% from Fluka, was used as internal standard.
Two different acyl donors were used:
Ethyl acetate, ≧99% from Fluka, used as both solvent and acyl donor
1 M Vinyl butyrate, >99% from Fluka, together with in MTBE, 99.5% from Lab-Scan, used as solvent.
Each diol was dissolved to a concentration of 100 mM together with 25 mM of decane in ethyl acetate, ≧99% from Fluka, used as acyl donor and solvent. Reactions were started by adding 3 ml reaction solution to 10 mg enzyme carrier beads loaded with wild-type CALB or 20 mg carrier beads loaded with T40A mutated CALB. Reactions were run at 29° C. in a temperature bath consisting of a HETO thermostat coupled to a Bom-roerder combined temperature bath and magnetic stirrer. 25 mM decane was used as internal standard were present in the reaction solution throughout both reaction and analysis. Aliquots of 60 μl were taken, filtered through wool in a Pasteur pipette together with 540 μl ethyl acetate prior to analysis. The filtration through wool removed any remaining enzyme from the reaction solution, and the reaction samples were diluted by a factor of 10 prior to analysis.
All reactions were analyzed on GC, Hewlett Packard 5890 series II. Two different 25 m×0.32 mm WCOT fused silica columns were used, depending on the different substrates and products that were analyzed. A polar GC-column with CP Chirasil-Dex CB coating was used for the reactions with 1,2-ethanediol. A non-polar GC-column with CP-SIL 5CB coating was used for the reactions with 1,4-butanediol.
The response factor for each diol was determined in relationship to decane. When all diol and mono-ester had converted to di-ester, the response factor for the di-ester could be determined in relationship to decane. The concentration of mono-ester in each reaction was determined by subtracting the concentration of di-ester from the starting concentration of diol.

The nature of experiment [3]: Enzyme selectivities and specificities towards 1,4-butanediol with vinyl acetate or vinyl butyrate in MTBE (Example 7). The procedure:
as §1, §2, §3

B1: WT: non-mutated Candida antarctica lipase B (CALB), SEQ ID NO: 2, immobilized on carrier beads (protein, listed as Candida antarctica)
chain: LPSGSDPAFSQPKSVLDAGLTCQGASPSSVSKPILLVPGTGTTGPQSFDSNWIPLSAQLGYTPCWISPPPFMLNDTQVNTEYMVNAITTLYAGSGNNKLPVLTWSQGGLVAQWGLTFFPSIRSKVDRLMAFAPDYKGTVLAGPLDALAVSAPSVWQQTTGSALTTALRNAGGLTQIVPTTNLYSATDEIVQPQVSNSPLDSSYLFNGKNVQAQAVCGPLFVIDHAGSLTSQFSYVVGRSALRSTTGQARSADYGITDCNPLPANDLTPEQKVAAAALLAPAAAAIVAGPKQNCEPDLMPYARPFAVGKRTCSGIVTP
modifications: immobilized on carrier beads
Take B1: the Initial reaction rates in experiment [1] (vinyl acetate) came out at 0.21 mol/g/min; in experiment [1] (vinyl butyrate), 0.36 mol/g/min; in experiment [2] (ethyl acetate) it was 0.065 mol/g/min; in experiment [2] (vinyl butyrate), 0.16 mol/g/min; in experiment [3] (vinyl acetate) it was 0.12 mol/g/min; in experiment [3] (vinyl butyrate) it was 0.24 mol/g/min.

B2: T40A: CALB mutant with single mutation Thr40Ala (SEQ ID NO: 4) (protein)
chain: LPSGSDPAFSQPKSVLDAGLTCQGASPSSVSKPILLVPGXGTTGPQSFDSNWIPLSAQLGYTPCWISPPPFMLNDTQVNTEYMVNAITTLYAGSGNNKLPVLTWSQGGLVAQWGLTFFPSIRSKVDRLMAFAPDYKGTVLAGPLDALAVSAPSVWQQTTGSALTTALRNAGGLTQIVPTTNLYSATDEIVQPQVSNSPLDSSYLFNGKNVQAQAVCGPLFVIDHAGSLTSQFSYVVGRSALRSTTGQARSADYGITDCNPLPANDLTPEQKVAAAALLAPAAAAIVAGPKQNCEPDLMPYARPFAVGKRTCSGIVTP
modifications: T40 Mutant
On to B2, for which the figures for the Initial reaction rates in experiment [2] (ethyl acetate) and in experiment [2] (vinyl butyrate) were 0.0008 mol/g/min and 0.016 mol/g/min, respectively. Besides, the “Rate ratio, T40A/WT” value in experiment [2] (ethyl acetate) was 1.2%; in experiment [2] (vinyl butyrate), 9.6%. In addition, the “Selectivity towards diol over 1-butanol, compared with wild type CALB” value was “higher” in experiment [2] (ethyl acetate as acyl donor and solvent (FIG. 9B)); “higher” in experiment [2] (vinyl butyrate, MTBE (FIG. 10B)).
